The values that follow come from US20070256687A1, “Enhanced Medical Product” (priority 2004, published 2007).

This series in a line: Emitted dose of volumetrically dosed API/excipient mixtures delivered by a proprietary DPI. The class given is physicochemical. From the text:
In the course of developing methods and products according to the present invention different APIs were mixed with excipients in different ratios. The objectives were to find inter alia suitable formulations and methods of filling doses, but also to optimize inhaler techniques and interaction between inhaler and dose container. Table 1 below discloses some examples of volumetrically dosed mixtures API/excipient and the resulting emitted dose when delivered by a proprietary DPI. […] The objective was to find suitable excipients and to see how different mixing ratios affected the emitted dose. The mixtures were produced under laboratory conditions in small quantities and remained quasi-stable under the run of tests. The emitted dose as percentage of total recovered dose was measured and the results were used in the development of the current invention.

Setting [1] is: excipient Mannitole, ratio API/excipient 50/50, proprietary DPI.
Where [2] appears, read: excipient Respitose®, ratio API/excipient 20/80, proprietary DPI.

As to insulin [Micronized insulin], under setting [1], the “Emitted Dose in % of recovered dose” value is on record as 83 % of recovered dose and the “Retention in % of recovered dose” value is reported as 17 % of recovered dose. Also, under setting [2], the “Emitted Dose in % of recovered dose” value is listed as 93 % of recovered dose and the “Retention in % of recovered dose” value is given as 7 % of recovered dose.
